Experimental data reported in article PMC2945414.

Key:
FLAG-tagged PKA (RIIα) = FLAG-tagged PKA (RIIα) (UniProt P13861); experiment: co-IP
[1] = target: PKA (RIIα), regulatory subunit of type II cAMP-dependent protein kinase, residues 2-44; experiment: ITC
PKA (RIα) (Homo sapiens) = PKA (RIα) (Homo sapiens) (UniProt P10644); details: cited from earlier work
[2] = target: PKA (RIIα) (Homo sapiens) (UniProt P13861); details: cited from earlier work

Chain of D-AKAP2 (O43572 29-662): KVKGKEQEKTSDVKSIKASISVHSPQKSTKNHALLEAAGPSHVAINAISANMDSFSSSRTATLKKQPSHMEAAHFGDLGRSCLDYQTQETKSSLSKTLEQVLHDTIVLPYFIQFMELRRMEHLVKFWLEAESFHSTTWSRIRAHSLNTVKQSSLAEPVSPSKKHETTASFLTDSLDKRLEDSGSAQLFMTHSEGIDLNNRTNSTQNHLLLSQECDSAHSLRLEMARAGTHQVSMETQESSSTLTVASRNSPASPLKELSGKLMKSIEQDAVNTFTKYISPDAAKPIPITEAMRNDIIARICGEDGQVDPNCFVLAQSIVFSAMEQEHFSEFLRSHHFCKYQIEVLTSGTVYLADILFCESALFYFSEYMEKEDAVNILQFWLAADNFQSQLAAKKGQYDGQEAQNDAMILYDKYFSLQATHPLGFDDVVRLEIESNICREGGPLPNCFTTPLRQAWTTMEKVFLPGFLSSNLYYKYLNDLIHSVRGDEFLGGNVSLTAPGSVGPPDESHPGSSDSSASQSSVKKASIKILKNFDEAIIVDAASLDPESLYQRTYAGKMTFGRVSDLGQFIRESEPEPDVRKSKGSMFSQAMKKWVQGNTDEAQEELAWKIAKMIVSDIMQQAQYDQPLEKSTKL
Chain of PKA (RIα) (Homo sapiens) (P10644 whole entry): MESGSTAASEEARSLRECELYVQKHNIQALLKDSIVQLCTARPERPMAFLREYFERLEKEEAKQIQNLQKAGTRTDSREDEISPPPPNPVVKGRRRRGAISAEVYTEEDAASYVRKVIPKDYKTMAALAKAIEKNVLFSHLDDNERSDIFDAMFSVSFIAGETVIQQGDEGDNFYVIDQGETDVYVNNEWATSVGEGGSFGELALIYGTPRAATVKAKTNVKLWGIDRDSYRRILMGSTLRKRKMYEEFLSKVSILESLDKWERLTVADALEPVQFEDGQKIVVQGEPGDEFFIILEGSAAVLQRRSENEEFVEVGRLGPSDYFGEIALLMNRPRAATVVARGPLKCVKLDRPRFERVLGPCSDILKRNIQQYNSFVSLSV

Substance | Kd [1] [nM] | other results
AML1-ETO V601A (natural protein) | – | fold decrease of the interaction relative to AML1-ETO (FLAG-tagged PKA (RIIα)): 2 fold
Trx-NHR3(585-615) V601A (domain or fragment) | 14000 | –
D-AKAP2 (from UniProt O43572) | – | Kd (PKA (RIα) (Homo sapiens)): 48 nM; Kd [2]: 2 nM
Trx-NHR3(585-615) W594A (domain or fragment) | 909 | –
Trx-NHR3(585-615) V604A (domain or fragment) | 383 | –

Now from value to substance, other results behind:

Kd [1] [nM] | Substance | other results
256 | Trx-NHR3(585-615) (domain or fragment) | –
67 | AML1-ETO Nervy Homology Region 3 (NHR3) domain, residues A585-N654 (domain or fragment) | stoichiometry N (NHR3 : PKA (RIIα) chains (1:2)) [1]: 0.5
128 | Trx-NHR3(585-654) (domain or fragment) | –
